Source: patent US20260242735A1 (UNIVERSIT T BASEL, published 2026)

What was measured:
Assay in all cases: flow cytometry, mutant on cells, IgG
human CD33 W22N = human CD33 W22N (human, UniProt P20138 18-364)
Description: (§1) An alanine scan on human CD33 was performed to the determine the residues on CD33 that are involved in binding to the antibodies investigated. […] Briefly, a mutation library of CD33 was created by high-throughput, site-directed mutagenesis. Each residue was individually mutated to alanine, with alanine codons mutated to serine. The mutant library was arrayed in 384-well microplates and transiently transfected into HEK293-T. Following transfection, cells were incubated with the indicated antibodies (IgG or Fab) at concentrations pre-determined using an independent immunofluorescence titration curve on wild type CD33. […] Binding of each antibody to each mutant clone was determined in duplicates. For each point, background fluorescence was subtracted from the raw data, which were then normalized to antibody reactivity with wild type CD33.
(§2) Antibodies were screened for binding to the human CD33 variants in IgG format. […] For each mutation, background fluorescence was subtracted from the raw data, which were then normalized to antibody reactivity with wild-type CD33.

human CD33 N20D = human CD33 N20D (human, UniProt P20138 18-364)
Description: as §1, §2

human CD33 P46I = human CD33 P46I (human, UniProt P20138 18-364)
Description: as §1, §2

human CD33 Q24N = human CD33 Q24N (human, UniProt P20138 18-364)
Description: as §1, §2

human CD33 F43V = human CD33 F43V (human, UniProt P20138 18-364)
Description: as §1, §2

human CD33 W22G = human CD33 W22G (human, UniProt P20138 18-364)
Description: as §1, §2

human CD33 W22Q = human CD33 W22Q (human, UniProt P20138 18-364)
Description: as §1, §2

human CD33 V25I = human CD33 V25I (human, UniProt P20138 18-364)
Description: as §1, §2

human CD33 F44I = human CD33 F44I (human, UniProt P20138 18-364)
Description: as §1, §2

human CD33 Q24S = human CD33 Q24S (human, UniProt P20138 18-364)
Description: as §1, §2

human CD33 D18R = human CD33 D18R (human, UniProt P20138 19-364)
Description: as §1, §2

human CD33 N20L = human CD33 N20L (human, UniProt P20138 18-364)
Description: as §1, §2

human CD33 W22Y = human CD33 W22Y (human, UniProt P20138 18-364)
Description: as §1, §2

human CD33 T42K = human CD33 T42K (human, UniProt P20138 18-364)
Description: as §1, §2

human CD33 V25S = human CD33 V25S (human, UniProt P20138 18-364)
Description: as §1, §2

human CD33 Q24I = human CD33 Q24I (human, UniProt P20138 18-364)
Description: as §1, §2

human CD33 P19D = human CD33 P19D (human, UniProt P20138 18-364)
Description: as §1, §2

human CD33 W22T = human CD33 W22T (human, UniProt P20138 18-364)
Description: as §1, §2

human CD33 F44P = human CD33 F44P (human, UniProt P20138 18-364)
Description: as §1, §2

human CD33 F21H = human CD33 F21H (human, UniProt P20138 18-364)
Description: as §1, §2

human CD33 P19L = human CD33 P19L (human, UniProt P20138 18-364)
Description: as §1, §2

human CD33 P46Y = human CD33 P46Y (human, UniProt P20138 18-364)
Description: as §1, §2

human CD33 F44D = human CD33 F44D (human, UniProt P20138 18-364)
Description: as §1, §2

human CD33 D18N = human CD33 D18N (human, UniProt P20138 19-364)
Description: as §1, §2

human CD33 F44H = human CD33 F44H (human, UniProt P20138 18-364)
Description: as §1, §2

human CD33 F44L = human CD33 F44L (human, UniProt P20138 18-364)
Description: as §1, §2

human CD33 P46F = human CD33 P46F (human, UniProt P20138 18-364)
Description: as §1, §2

human CD33 F21V = human CD33 F21V (human, UniProt P20138 18-364)
Description: as §1, §2

human CD33 Q24E = human CD33 Q24E (human, UniProt P20138 18-364)
Description: as §1, §2

human CD33 F44Q = human CD33 F44Q (human, UniProt P20138 18-364)
Description: as §1, §2

human CD33 N20Y = human CD33 N20Y (human, UniProt P20138 18-364)
Description: as §1, §2

human CD33 L23M = human CD33 L23M (human, UniProt P20138 18-364)
Description: as §1, §2

human CD33 P46L = human CD33 P46L (human, UniProt P20138 18-364)
Description: as §1, §2

human CD33 F21S = human CD33 F21S (human, UniProt P20138 18-364)
Description: as §1, §2

human CD33 N20T = human CD33 N20T (human, UniProt P20138 18-364)
Description: as §1, §2

human CD33 I47V = human CD33 I47V (human, UniProt P20138 18-364)
Description: as §1, §2

human CD33 N20K = human CD33 N20K (human, UniProt P20138 18-364)
Description: as §1, §2

Sequence of human CD33 V25S (P20138 18-364 V25S limits assumed): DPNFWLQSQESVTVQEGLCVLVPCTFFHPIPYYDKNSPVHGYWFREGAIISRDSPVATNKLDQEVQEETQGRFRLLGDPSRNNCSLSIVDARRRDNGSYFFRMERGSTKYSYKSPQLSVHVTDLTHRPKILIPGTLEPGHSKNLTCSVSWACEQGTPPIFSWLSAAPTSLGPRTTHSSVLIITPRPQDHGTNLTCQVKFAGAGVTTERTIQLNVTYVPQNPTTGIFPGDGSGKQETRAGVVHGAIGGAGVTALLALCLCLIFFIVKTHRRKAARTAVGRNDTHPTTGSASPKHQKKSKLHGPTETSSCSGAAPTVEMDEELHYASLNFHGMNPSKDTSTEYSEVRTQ
Sequence of human CD33 P46F (P20138 18-364 P46F limits assumed): as the sequence (P20138 18-364 V25S limits assumed) above, with S8V, P29F counted along it
Sequence of human CD33 Q24E (P20138 18-364 Q24E limits assumed): as the sequence (P20138 18-364 V25S limits assumed) above, with Q7E, S8V counted along it
Sequence of human CD33 N20Y (P20138 18-364 N20Y limits assumed): as the sequence (P20138 18-364 V25S limits assumed) above, with N3Y, S8V counted along it
Sequence of human CD33 P46L (P20138 18-364 P46L limits assumed): as the sequence (P20138 18-364 V25S limits assumed) above, with S8V, P29L counted along it
Sequence of human CD33 P19L (P20138 18-364 P19L limits assumed): as the sequence (P20138 18-364 V25S limits assumed) above, with P2L, S8V counted along it
Sequence of human CD33 F21V (P20138 18-364 F21V limits assumed): as the sequence (P20138 18-364 V25S limits assumed) above, with F4V, S8V counted along it
Sequence of human CD33 P46Y (P20138 18-364 P46Y limits assumed): as the sequence (P20138 18-364 V25S limits assumed) above, with S8V, P29Y counted along it
Sequence of human CD33 F43V (P20138 18-364 F43V limits assumed): as the sequence (P20138 18-364 V25S limits assumed) above, with S8V, F26V counted along it
Sequence of human CD33 N20L (P20138 18-364 N20L limits assumed): as the sequence (P20138 18-364 V25S limits assumed) above, with N3L, S8V counted along it
Sequence of human CD33 I47V (P20138 18-364 I47V limits assumed): as the sequence (P20138 18-364 V25S limits assumed) above, with S8V, I30V counted along it
Sequence of human CD33 F21H (P20138 18-364 F21H limits assumed): as the sequence (P20138 18-364 V25S limits assumed) above, with F4H, S8V counted along it
Sequence of human CD33 T42K (P20138 18-364 T42K limits assumed): as the sequence (P20138 18-364 V25S limits assumed) above, with S8V, T25K counted along it
Sequence of human CD33 Q24I (P20138 18-364 Q24I limits assumed): as the sequence (P20138 18-364 V25S limits assumed) above, with Q7I, S8V counted along it

Row | Binder | Mean % WT Binding (human CD33 W22N) [% WT binding] | Mean % WT Binding (human CD33 N20D) [% WT binding] | Mean % WT Binding (human CD33 P46I) [% WT binding] | Mean % WT Binding (human CD33 Q24N) [% WT binding] | Mean % WT Binding (human CD33 F43V) [% WT binding] | Mean % WT Binding (human CD33 W22G) [% WT binding] | Mean % WT Binding (human CD33 W22Q) [% WT binding] | Mean % WT Binding (human CD33 V25I) [% WT binding] | Mean % WT Binding (human CD33 F44I) [% WT binding] | Mean % WT Binding (human CD33 Q24S) [% WT binding] | Mean % WT Binding (human CD33 D18R) [% WT binding] | Mean % WT Binding (human CD33 N20L) [% WT binding] | Mean % WT Binding (human CD33 W22Y) [% WT binding] | Mean % WT Binding (human CD33 T42K) [% WT binding] | Mean % WT Binding (human CD33 V25S) [% WT binding] | Mean % WT Binding (human CD33 Q24I) [% WT binding] | Mean % WT Binding (human CD33 P19D) [% WT binding] | Mean % WT Binding (human CD33 W22T) [% WT binding] | Mean % WT Binding (human CD33 F44P) [% WT binding] | Mean % WT Binding (human CD33 F21H) [% WT binding] | further results
1 | Refmab #3 (antibody, human IgG1, V domains shown, Tested in IgG format; human IgG1 Fc silent (PG-LALA)) VH: QVQLVQSGAEVKKPGSSVKVSCKASGYTFTDYNMHWVRQAPGQGLEWIGYIYPYNGGTGYNQKFKSKATITADESTNTAYMELSSLRSEDTAVYYCARGRPAMDYWGQGTLVTVSS VL: DIQMTQSPSSLSASVGDRVTITCRASESVDNYGISFMNWFQQKPGKAPKLLIYAASNQGSGVPSRFSGSGSGTDFTLTISSLQPDDFATYYCQQSKEVPWTFGQGTKVEIK | 3.5 | 4.6 | 1.8 | 35.3 | 101 | 9 | 12.5 | 113 | 101 | 5.3 | 5.3 | 9.4 | 11.5 | 103 | 104 | 61.3 | 0.6 | 1.3 | 2 | 1.4 | Mean % WT Binding (human CD33 P19L): 117 % WT binding; Mean % WT Binding (human CD33 P46Y): 0.8 % WT binding; Mean % WT Binding (human CD33 F44D): 1.2 % WT binding; Mean % WT Binding (human CD33 D18N): 71.5 % WT binding; Mean % WT Binding (human CD33 F44H): 91.2 % WT binding; Mean % WT Binding (human CD33 F44L): 80 % WT binding; Mean % WT Binding (human CD33 P46F): 0.2 % WT binding; Mean % WT Binding (human CD33 F21V): 0.7 % WT binding; Mean % WT Binding (human CD33 Q24E): 0.8 % WT binding; Mean % WT Binding (human CD33 F44Q): 105 % WT binding; Mean % WT Binding (human CD33 N20Y): 0.6 % WT binding; Mean % WT Binding (human CD33 L23M): 98.1 % WT binding; Mean % WT Binding (human CD33 P46L): 0.7 % WT binding; Mean % WT Binding (human CD33 F21S): 3.4 % WT binding; Mean % WT Binding (human CD33 N20T): 2.2 % WT binding; Mean % WT Binding (human CD33 I47V): 100 % WT binding; Mean % WT Binding (human CD33 N20K): 0.8 % WT binding
2 | Refmab #2 (antibody, human IgG1, V domains shown, Tested in IgG format; human IgG1 Fc silent (PG-LALA)) VH: QVQLVQSGAEVKKPGSSVKVSCKASGGTFSDYAISWVRQAPGQGLEWMGRIIPILGVADYAQKFQGRVTITADKSTRTAYMELSSLRSEDTAVYYCARNWADAFDIWGQGTMVTVSS VL: DIQLTQSPSSLSASVGDRVTITCRASQGISSVLAWYQQKPGKAPKLLIYDASSLESGVPSRFSGSGSGTDFTLTISSLQPEDFATYYCQQFDSSITFGQGTKLEIK | 107 | 109 | 55.8 | 117 | 24.5 | 113 | 108 | 114 | 0.4 | 108 | 96.5 | 95.8 | 107 | 95.5 | 110 | 96.8 | 99.3 | 103 | 0.4 | 117 | Mean % WT Binding (human CD33 P19L): 111 % WT binding; Mean % WT Binding (human CD33 P46Y): 60.1 % WT binding; Mean % WT Binding (human CD33 F44D): 2 % WT binding; Mean % WT Binding (human CD33 D18N): 59.2 % WT binding; Mean % WT Binding (human CD33 F44H): 0.4 % WT binding; Mean % WT Binding (human CD33 P46F): 80.9 % WT binding; Mean % WT Binding (human CD33 F21V): 117 % WT binding; Mean % WT Binding (human CD33 Q24E): 63.7 % WT binding; Mean % WT Binding (human CD33 F44Q): 0.5 % WT binding; Mean % WT Binding (human CD33 N20Y): 34.7 % WT binding; Mean % WT Binding (human CD33 L23M): 107 % WT binding; Mean % WT Binding (human CD33 P46L): 93.8 % WT binding; Mean % WT Binding (human CD33 F21S): 115 % WT binding; Mean % WT Binding (human CD33 N20T): 116 % WT binding; Mean % WT Binding (human CD33 I47V): 97.2 % WT binding; Mean % WT Binding (human CD33 N20K): 103 % WT binding
3 | Refmab #1 (antibody, human IgG1, V domains shown, Tested in IgG format; human IgG1 (Absolute Antibody hP67.6, Cat. No. Ab00283-10.0); also called hP67.6) VH: EVQLVQSGAEVKKPGSSVKVSCKASGYTITDSNIHWVRQAPGQSLEWIGYIYPYNGGTDYNQKFKNRATLTVDNPTNTAYMELSSLRSEDTAFYYCVNGNPWLAYWGQGTLVTVSS VL: DIQLTQSPSTLSASVGDRVTITCRASESLDNYGIRFLTWFQQKPGKAPKLLMYAASNQGSGVPSRFSGSGSGTEFTLTISSLQPDDFATYYCQQTKEVPWSFGQGTKVEVK | 76.5 | 0.7 | 38.2 | 86.5 | 101 | 89.6 | 99.5 | 113 | 100 | 60.2 | 60.6 | 78.5 | 98 | 106 | 106 | 80 | 2.6 | 6.2 | 37.1 | 20.6 | Mean % WT Binding (human CD33 P19L): 91.6 % WT binding; Mean % WT Binding (human CD33 P46Y): 0.9 % WT binding; Mean % WT Binding (human CD33 F44D): 98.9 % WT binding; Mean % WT Binding (human CD33 D18N): 69.6 % WT binding; Mean % WT Binding (human CD33 F44H): 97.6 % WT binding; Mean % WT Binding (human CD33 F44L): 112 % WT binding; Mean % WT Binding (human CD33 P46F): 1 % WT binding; Mean % WT Binding (human CD33 F21V): 1.5 % WT binding; Mean % WT Binding (human CD33 Q24E): 17.1 % WT binding; Mean % WT Binding (human CD33 F44Q): 106 % WT binding; Mean % WT Binding (human CD33 N20Y): 0.4 % WT binding; Mean % WT Binding (human CD33 L23M): 94.4 % WT binding; Mean % WT Binding (human CD33 P46L): 28.9 % WT binding; Mean % WT Binding (human CD33 F21S): 6.4 % WT binding; Mean % WT Binding (human CD33 N20T): 6.9 % WT binding; Mean % WT Binding (human CD33 I47V): 112 % WT binding; Mean % WT Binding (human CD33 N20K): 0.4 % WT binding
